Reference: publication PMC5339767, “A Novel Kleefstra Syndrome-associated Variant That Affects the Conserved TPLX Motif within the Ankyrin Repeat of EHMT1 Leads to Abnormal Protein Folding” (The Journal of Biological Chemistry, 2017)
Numbering of substitutions follows the chain as printed. Names and notes keep the numbering of the source. “Also recorded” adds a separate entry of the source.

Legend:
[1] = target: T1, EHMT1 WT (Homo sapiens, UniProt Q9H9B1); assay: Trp fluorescence quenching titration of dimethylated histone H3 Lys9 peptide, WT EHMT1; assay type: binding; settings: WT EHMT1 1 μM; stepwise addition of peptide (36.3 μM); 2 min equilibration; 20 °C; λEx 295 nm, λEm 350 nm; midpoint of logistic function with Hill slope; read-out: apparent affinity
T1 construct: WT and p.P809L EHMT1 variant ankyrin domains expressed from Escherichia coli; His6 (N); made in house; host or cells: E. coli BL21 (DE3), pET vector
T1 sequence (Q9H9B1 765-1001 limits assumed): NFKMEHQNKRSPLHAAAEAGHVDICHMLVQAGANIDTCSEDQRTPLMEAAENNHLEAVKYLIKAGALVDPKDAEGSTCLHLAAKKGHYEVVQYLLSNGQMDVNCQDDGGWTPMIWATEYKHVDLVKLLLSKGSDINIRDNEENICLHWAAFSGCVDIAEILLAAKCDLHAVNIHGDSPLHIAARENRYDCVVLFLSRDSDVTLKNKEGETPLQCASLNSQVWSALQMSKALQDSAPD
Protocol: (§1) Circular dichroism spectra (Fig. 7, left panel) were recorded to study the effect of the p.P809L mutation on the secondary structure of EHMT1 and confirm the in silico predictions that the p.P809L variant causes abnormal protein folding. The far UV CD spectrum of EHMT1 is dominated by the α-helical content of the protein showing two characteristic minima at 222 and 208 nm. […] Lastly, because the ankyrin repeat domain of the EHMT1 is critical for binding to methylated histones to regulate gene expression, we also studied the interaction of EHMT1 and the p.P809L mutation with its dimethylated target, the histone H3K9 peptide, by monitoring the Trp fluorescence emission at 350 nm after excitation at 295 nm (Fig. 9, left panel).
FIGURE 9. Interaction of EHMT1 with the dimethylated histone H3 Lys^9 peptide. […] The change in fluorescence intensity was followed at λEm = 350 nm after excitation at λEx = 295 nm. […]
For experimental purposes, we produced and purified an N-terminal His6-tagged recombinant form of WT and the p.P809L EHMT1 proteins using the pET vector system (Novagen). […] Spectra in the far UV range (200–260 nm) for WT and p.P809L EHMT1 were recorded on an Aviv Biomedical Model 420SF circular dichroism spectrometer. […] Fluorescence measurements were performed at 20 °C on a Horiba Jobin-Yvon Fluorolog 3 spectrofluorometer equipped with a Wavelength Electronics LF1-3751 temperature controller. […]

[2] = intrinsic protein fluorescence emission spectra; assay type: physicochemical; settings: protein 1 μM, 20 °C; for λmax of fluorescence emission: excitation 280 and 295 nm, emission 310-440 nm
Protocol: as §1
FIGURE 8. Fluorescence emission spectra of WT EHMT1 and of p.P809L. Fluorescence emission spectra of WT EHMT1 (solid symbols and bars) and of p.P809L (open symbols and bars) were obtained. Spectra were recorded at 20 °C using a protein concentration of 1 μM. The excitation wavelengths (λEx) were 280 nm (circles; excitation of Trp and Tyr residues) and 295 nm (squares; selective excitation of Trp residues). […]
For experimental purposes, we produced and purified an N-terminal His6-tagged recombinant form of WT and the p.P809L EHMT1 proteins using the pET vector system (Novagen). […] Spectra in the far UV range (200–260 nm) for WT and p.P809L EHMT1 were recorded on an Aviv Biomedical Model 420SF circular dichroism spectrometer. […] Fluorescence measurements were performed at 20 °C on a Horiba Jobin-Yvon Fluorolog 3 spectrofluorometer equipped with a Wavelength Electronics LF1-3751 temperature controller. Fluorescence emission spectra of both proteins were recorded between 310 and 440 nm after excitation at 280 or 295 nm using a protein concentration of 1 μM in a 1-cm quartz cell. […] After equilibration for 2 min, the fluorescence signal was recorded and averaged for 20 s using an excitation wavelength of 295 nm for the selective excitation of Trp residues and an emission wavelength of 350 nm. […]

[3] = far UV circular dichroism spectroscopy; assay type: physicochemical; settings: far UV CD 200–260 nm, 20 °C; Bestsel deconvolution; compared with WT
Protocol: as §1
FIGURE 7. Impact of the p. P809L mutation on secondary structure. Left panel, far UV CD spectra of WT EHMT1 (●) and of p.P809L (○) were recorded at 20 °C, corrected by the signal of the buffer, and converted to mean ellipticity per amino acid residue (ϴ^MRW). […]
For experimental purposes, we produced and purified an N-terminal His6-tagged recombinant form of WT and the p.P809L EHMT1 proteins using the pET vector system (Novagen). […] Spectra in the far UV range (200–260 nm) for WT and p.P809L EHMT1 were recorded on an Aviv Biomedical Model 420SF circular dichroism spectrometer. […]

[4] = p.P81L mutation in TPLX motif of p16; cited from earlier work
Text: (§2) Nevertheless, our study is the first to describe how mutations in any of the TPLX motifs of the EHMT1 ankyrin domain affect protein folding to induce a moderate change in its affinity for the H3K9me2 peptide. Thus, it becomes important to compare this information to other, better characterized mutations in ankyrin repeats that are known to be pathogenic in humans. […] Thus, this type of mutation ( ...

[5] = test system: CDK4; settings: non-quantitative two-hybrid GAL4-based reporter assay; cited from earlier work
Text: as §2

Molecule: H3K9me2 peptide: dimethylated histone H3 Lys^9 peptide
- Kd [1]: 760 nM

B1: WT EHMT1: N-terminal His6-tagged recombinant form of WT EHMT1 (protein, UniProt Q9H9B1 2-1298, looked up)
Histone-lysine …: AAADAEAVPARGEPQQDCCVKTELLGEETPMAADEGSAEKQAGEAHMAADGETNGSCENSDASSHANAAKHTQDSARVNPQDGTNTLTRIAENGVSERDSEAAKQNHVTADDFVQTSVIGSNGYILNKPALQAQPLRTTSTLASSLPGHAAKTLPGGAGKGRTPSAFPQTPAAPPATLGEGSADTEDRKLPAPGADVKVHRARKTMPKSVVGLHAASKDPREVREARDHKEPKEEINKNISDFGRQQLLPPFPSLHQSLPQNQCYMATTKSQTACLPFVLAAAVSRKKKRRMGTYSLVPKKKTKVLKQRTVIEMFKSITHSTVGSKGEKDLGASSLHVNGESLEMDSDEDDSEELEEDDGHGAEQAAAFPTEDSRTSKESMSEADRAQKMDGESEEEQESVDTGEEEEGGDESDLSSESSIKKKFLKRKGKTDSPWIKPARKRRRRSRKKPSGALGSESYKSSAGSAEQTAPGDSTGYMEVSLDSLDLRVKGILSSQAEGLANGPDVLETDGLQEVPLCSCRMETPKSREITTLANNQCMATESVDHELGRCTNSVVKYELMRPSNKAPLLVLCEDHRGRMVKHQCCPGCGYFCTAGNFMECQPESSISHRFHKDCASRVNNASYCPHCGEESSKAKEVTIAKADTTSTVTPVPGQEKGSALEGRADTTTGSAAGPPLSEDDKLQGAASHVPEGFDPTGPAGLGRPTPGLSQGPGKETLESALIALDSEKPKKLRFHPKQLYFSARQGELQKVLLMLVDGIDPNFKMEHQNKRSPLHAAAEAGHVDICHMLVQAGANIDTCSEDQRTPLMEAAENNHLEAVKYLIKAGALVDPKDAEGSTCLHLAAKKGHYEVVQYLLSNGQMDVNCQDDGGWTPMIWATEYKHVDLVKLLLSKGSDINIRDNEENICLHWAAFSGCVDIAEILLAAKCDLHAVNIHGDSPLHIAARENRYDCVVLFLSRDSDVTLKNKEGETPLQCASLNSQVWSALQMSKALQDSAPDRPSPVERIVSRDIARGYERIPIPCVNAVDSEPCPSNYKYVSQNCVTSPMNIDRNITHLQYCVCIDDCSSSNCMCGQLSMRCWYDKDGRLLPEFNMAEPPLIFECNHACSCWRNCRNRVVQNGLRARLQLYRTRDMGWGVRSLQDIPPGTFVCEYVGELISDSEADVREEDSYLFDLDNKDGEVYCIDARFYGNVSRFINHHCEPNLVPVRVFMAHQDLRFPRIAFFSTRLIEAGEQLGFDYGERFWDIKGKLFSCRCGSPKCRHSSAALAQRQASAAQEAQEDGLPDTSSAAAADPL
modifications: N-terminal His6 tag
- λmax of fluorescence emission [2]: ~350 nm

B2: p.P809L: N-terminal His6-tagged recombinant p.P809L EHMT1 variant (c.2426C>T) (protein, UniProt Q9H9B1 2-1298, looked up, variant P809L)
Histone-lysine …: B1 Histone-lysine … with P808L
modifications: N-terminal His6 tag
- fluorescence emission (intensity) ([2]; compared with wild type protein): decrease of the fluorescence emission
- λmax of fluorescence emission [2]: 347 nm
- α-helical content [3]: reduced α-helical content; also recorded: decrease in the α-helical content

B3: p.P81L p16: p.P81L mutation in the TPLX motif within the ankyrin repeat of the tumor suppressor p16 (protein, UniProt P42771 1-156, looked up, variant P81L)
Cyclin-dependent kinase …: MEPAAGSSMEPSADWLATAAARGRVEEVRALLEAGALPNAPNSYGRRPIQVMMMGSARVAELLLLHGAEPNCADPATLTRLVHDAAREGFLDTLVVLHRAGARLDVRDAWGRLPVDLAEELGHRDVARYLRAAAGGTRGSNHARIDAAEGPSDIPD
- secondary structure [4]: secondary structure alterations
- interaction with CDK4 [5]: impaired interaction with CDK4
